Experimental data published in US20250235545A1, “POLYPEPTIDE CONJUGATE AND USE THEREOF” (SHANGHAI CHIXI BIOMEDICAL TECHNOLOGY CO., LTD, priority 2024, published 2025).
In brackets after ≈: the same amount, converted by molar mass. Like-named read-outs stand apart in the source and are kept apart here. Where a SMILES comes first, the peptide text is derived from it. The star is where a group is joined. NEt(2-(20S-CPT-7-yl)ethyl) = CCN(CCc1c2c(nc3ccccc13)-c1cc3c(c(=O)n1C2)COC(=O)[C@]3(O)CC)*; X1 = CC[C@@]1(O)C(=O)OCc2c1cc1n(c2=O)Cc2c-1nc1ccccc1c2CCN(C1CCC1)*; X3 = CC[C@@]1(O)C(=O)OCc2c1cc1n(c2=O)Cc2c-1nc1ccccc1c2CCN(C1CC1)*; Propanoyl(3-maleimido) = O=C1C=CC(=O)N1CCC(=O)*; PEG6 = NCCOCCOCCOCCOCCOCCOCCC(=O)O

Legend:
[1] = tested on: SKBR3 (breast cancer tissue); experiment: cells; format: cell-based; conditions: CCK8, 48 h; Table 6
Procedure, shortened: (§1)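 Cells seeded at 5,000 cells/well in RPMI1640 or DMEM high-glucose with 10% FBS and 1 mM sodium pyruvate, exposed to graded drug concentrations for 48 h at 37° C., 5% CO2; 0.1% DMSO controls. CCK8 added for ~2 h, absorbance 450 nm; survival rates and IC50 calculated.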

A2780 (ovarian cancer) = experiment: cells; format: cell-based; conditions: CCK8, 48 h; Table 6
Procedure, shortened: as §1

SJSA-1 (sarcoma tissue) = experiment: cells; format: cell-based; conditions: CCK8, 48 h; Table 6
Procedure, shortened: as §1

[2] = tested on: A549 (non-small cell lung cancer); experiment: cells; format: cell-based; conditions: CCK8, 48 h; Table 6
Procedure, shortened: as §1

[3] = Tumor homogenate activation efficiency, ovarian cancer tissue (Examples 28, 37); format: in vitro ADME; conditions: pH 5.0, 37° C., 2 h; Table 10
Procedure, shortened: (§2)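 Activation is reported as the fraction of free Belotecan peak area among all Belotecan-bearing peaks by HPLC. The conjugate (1 mg/ml) reacts with 100 μg homogenate for 2 h at 37° C in MES buffer, pH 5.0.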

[4] = tested on: colo320 (colorectal cancer tissue); experiment: cells; format: cell-based; conditions: CCK8, 48 h; Table 6
Procedure, shortened: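 Colo320 cells, 5,000 per well, exposed to drug concentration series for 48 h at 37 °C, 5% CO2 (0.1% DMSO controls). Viability by CCK8, absorbance at 450 nm after about 2 h. Survival rates and IC50 calculated.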

[5] = Tumor homogenate activation efficiency, colorectal cancer tissue (Example 37); format: in vitro ADME; conditions: pH 5.0, 37° C., 2 h; Table 10
Protocol: Buffer preparation: 50 mM PH buffer (MES), 250 mM NaCl, pH adjusted to 5.0 with 0.5 M of sodium hydroxide.
The polypeptide conjugate was prepared into a 1 mg/ml solution with pH 5.0 buffer, 100 μg of tumor tissue homogenate was added, (the tumor tissue homogenate was the homogenate of tumor tissues prepared with a Jingxin F6/10 handheld homogenizer), and the solution was placed at 37° C. for 2 h. The tumor tissue homogenate could effectively activate the polypeptide conjugate and release Belotecan, and the activation efficiencies of the drugs in tumor tissues were compared by HPLC allowing determination of a decrease in the compounds and an increase in Belotecan:
Release percentage=peak area of Belotecan/total peak area of Belotecan and all other Belotecan-containing compounds

[6] = tested on: sarcoma SJSA-1 tumor model; conditions: Table 7
Procedure, shortened: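 SJSA-1 cells (2×10^7, DMEM/10% FBS, under 15 passages) implanted subcutaneously in right chest of female BALB/c nude mice, 6-8 weeks old. At ≥100 mm^3, randomized three per group; dosing once weekly for three weeks, saline as control, day 1 = first treatment.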

[7] = Tumor homogenate activation efficiency, non-small cell lung cancer tissue (Examples 28, 37); format: in vitro ADME; conditions: pH 5.0, 37° C., 2 h; Table 10
Procedure, shortened: as §2

[8] = Tumor homogenate activation efficiency, breast cancer tissue (Examples 28, 37); format: in vitro ADME; conditions: pH 5.0, 37° C., 2 h; Table 10
Procedure, shortened: as §2

[9] = tested on: colo320 colorectal cancer tumor model
Procedure, shortened: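 Female BALB/c nude mice, 6–8 weeks old, received 7.5×10^6 colo320 cells subcutaneously in the right chest. Once tumors reached at least 120 mm^3 they were randomized three per group. Treatment with test agents or saline control was given once weekly for four weeks.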

[10] = tested on: sarcoma SJSA-1 tumor model; experiment: Efficacy in animal model of sarcoma SJSA-1, 30 mg/kg once a week for two weeks (Example 40); format: in vivo, BALB/c mice; conditions: 30 mg/kg once a week for two weeks
Protocol: Test objective: To further compare the antitumor efficacy of different polypeptide Linkers in an animal tumor model of sarcoma SJSA-1.
(§3) Test drug: Polypeptide conjugate and normal saline control group.
The control group was administered normal saline. Administration was performed once a week for two weeks.

[11] = MTD determination in mice (Examples 27, 36, 44); format: in vivo; conditions: female, mouse, in vivo; mice, monitored for 14 d; Table 9
Source text: Test animals: 6-8 weeks old mice, all female; mice were grouped randomly, with six mice in each group, administered with drugs at different concentration gradients separately and monitored for 14 d. A mouse was euthanized at a loss of 20% of its initial weight and deemed to have died of poisoning.

[12] = Homogenate activation efficiency, heart tissue (Examples 28, 37); format: in vitro ADME; conditions: pH 5.0, 37° C., 2 h; Table 10
[13] = Tumor homogenate activation efficiency, sarcoma tissue (Examples 28, 37); format: in vitro ADME; conditions: pH 5.0, 37° C., 2 h; Table 10
Procedure, shortened: as §2

[14] = tested on: A2780 ovarian cancer tumor model; experiment: Efficacy in animal model of A2780 ovarian cancer, 30 mg/kg once a week for two weeks (Example 41); format: in vivo, BALB/c mice; conditions: Day 14
Protocol: Test objective: To further compare the antitumor efficacy of different polypeptide Linkers in an animal tumor model of A2780 ovarian cancer.
as §3
8×10^6 corresponding cells were injected into right axillas of nude mice subcutaneously. […] The negative control group was administered normal saline. Administration was performed once a week for two weeks.

[15] = 15 mg/kg once a week for three weeks
[16] = 45 mg/kg once a week for three weeks
[17] = 45 mg/kg once a week for four weeks, Table 8
[18] = Table 14 (Example 43), dose 45 mg/kg, once a week for four weeks, BALB/c mice
[19] = 15 mg/kg once a week for four weeks, Table 8

CCN(CCc1c2c(nc3ccccc13)-c1cc3c(c(=O)n1C2)COC(=O)[C@]3(O)CC)C(=O)[C@H](CC(C)C)NC(=O)[C@H](CC(N)=O)NC(=O)[C@H](C)NC(=O)[C@H](C)NC(=O)CCOCCOCCOCCOCCOCCOCCNC(=O)CCN1C(=O)C=CC1=O [MI-6PEG-AANL-D2] ({Propanoyl(3-maleimido)-PEG6}-AANL-{NEt(2-(20S-CPT-7-yl)ethyl)})
IC50 Breast cancer tissue (SKBR3) [1]: 3.28 µg/mL (≈ 2.57 µM)
IC50 Ovarian cancer tissue (A2780) (A2780 (ovarian cancer)): 1.31 µg/mL (≈ 1.03 µM)
IC50 Sarcoma tissue (SJSA-1) (SJSA-1 (sarcoma tissue)): 1.58 µg/mL (≈ 1.24 µM)
IC50 Non-small cell lung cancer tissue (A549) [2]: 2.57 µg/mL (≈ 2.02 µM)
Percentage of release efficiency (%) Ovarian cancer tissue (A2780) [3]: 71.3%
IC50 Colorectal cancer tissue (colo320) [4]: 4.65 µg/mL (≈ 3.65 µM)
Percentage of release efficiency (%) Colorectal cancer tissue (colo320) [5]: 65%
Mouse weight (%) [6, 15]: +41%
SJSA-1 (sarcoma tissue) growth rate (%) [6, 15]: 1316.56%
SJSA-1 (sarcoma tissue) mean tumor volume (mm^3) [6, 15]: 1645.7 mm^3
Mouse weight (%) [6, 16]: +24%
SJSA-1 (sarcoma tissue) growth rate (%) [6, 16]: 964.08%
SJSA-1 (sarcoma tissue) mean tumor volume (mm^3) [6, 16]: 1213.3 mm^3
Percentage of release efficiency (%) Non-small cell lung cancer tissue (A549) [7]: 73.6%
Percentage of release efficiency (%) Breast cancer tissue (SKBR3) [8]: 73.5%
Mouse weight (%) [9, 17]: +19%
colo320 (colorectal cancer cell) growth rate (%) [9, 17]: 760.87%
colo320 (colorectal cancer cell) mean tumor volume (mm^3) [9, 17]: 894.4 mm^3
Mouse weight (%) [9, 18]: +19%
colo320 (colorectal cancer cell) growth rate (%) [9, 18]: 760.87%
colo320 (colorectal cancer cell) mean tumor volume (mm^3) [9, 18]: 894.4 mm^3
SJSA-1 (sarcoma tissue) mean tumor volume (mm^3) Day 1 ([10]; Day 1): 136.59 mm^3
SJSA-1 (sarcoma tissue) mean tumor volume (mm^3) Day 4 ([10]; Day 4): 465.17 mm^3
SJSA-1 (sarcoma tissue) mean tumor volume (mm^3) Day 7 ([10]; Day 7): 891.36 mm^3
SJSA-1 (sarcoma tissue) mean tumor volume (mm^3) Day 10 ([10]; Day 10): 1320.55 mm^3
Mouse weight (%) on Day 14 ([10]; Day 14): +1.9%
SJSA-1 (sarcoma tissue) growth rate (%) on Day 14 ([10]; Day 14): 1623.94%
SJSA-1 (sarcoma tissue) mean tumor volume (mm^3) Day 14 ([10]; Day 14): 2218.14 mm^3
MTD at 14 d [11]: 200 mg/kg
Percentage of release efficiency (%) Heart tissue [12]: 0.9%
Percentage of release efficiency (%) Sarcoma tissue (SJSA1) [13]: 67.1%

CC[C@@]1(O)C(=O)OCc2c1cc1n(c2=O)Cc2c-1nc1ccccc1c2CCN(C(=O)[C@H](CC(C)C)NC(=O)[C@H](CC(N)=O)NC(=O)[C@H](C)NC(=O)[C@H](C)NC(=O)CCOCCOCCOCCOCCOCCOCCNC(=O)CCN1C(=O)C=CC1=O)C1CC1 [MI-6PEG-AANL-D6] ({Propanoyl(3-maleimido)-PEG6}-AANL-X3)
IC50 Breast cancer tissue (SKBR3) [1]: 2.02 µg/mL (≈ 1.57 µM)
IC50 Ovarian cancer tissue (A2780) (A2780 (ovarian cancer)): 0.70 µg/mL (≈ 0.544 µM)
IC50 Sarcoma tissue (SJSA-1) (SJSA-1 (sarcoma tissue)): 0.51 µg/mL (≈ 0.396 µM)
IC50 Non-small cell lung cancer tissue (A549) [2]: 1.38 µg/mL (≈ 1.07 µM)
Percentage of release efficiency (%) Ovarian cancer tissue (A2780) [3]: 76.2%
IC50 Colorectal cancer tissue (colo320) [4]: 1.87 µg/mL (≈ 1.45 µM)
Percentage of release efficiency (%) Colorectal cancer tissue (colo320) [5]: 73.5%
Mouse weight (%) on Day 14 [14]: +5.2%
Mouse weight (%) [6, 15]: +19%
Mouse weight (%) [6, 16]: +17%
Percentage of release efficiency (%) Non-small cell lung cancer tissue (A549) [7]: 66.1%
Percentage of release efficiency (%) Breast cancer tissue (SKBR3) [8]: 66.9%
Mouse weight (%) [9, 19]: +25%
Mouse weight (%) [9, 17]: +5%
Mouse weight (%) on Day 14 ([10]; Day 14): −2.5%
MTD at 14 d [11]: 120 mg/kg
Percentage of release efficiency (%) Heart tissue [12]: 3%
Percentage of release efficiency (%) Sarcoma tissue (SJSA1) [13]: 69.5%

CC[C@@]1(O)C(=O)OCc2c1cc1n(c2=O)Cc2c-1nc1ccccc1c2CCN(C(=O)[C@H](CC(C)C)NC(=O)[C@H](CC(N)=O)NC(=O)[C@H](C)NC(=O)[C@H](C)NC(=O)CCOCCOCCOCCOCCOCCOCCNC(=O)CCN1C(=O)C=CC1=O)C1CCC1 [MI-6PEG-AANL-D7] ({Propanoyl(3-maleimido)-PEG6}-AANL-X1)
IC50 Breast cancer tissue (SKBR3) [1]: 2.01 µg/mL (≈ 1.54 µM)
IC50 Ovarian cancer tissue (A2780) (A2780 (ovarian cancer)): 0.91 µg/mL (≈ 0.699 µM)
IC50 Sarcoma tissue (SJSA-1) (SJSA-1 (sarcoma tissue)): 1.33 µg/mL (≈ 1.02 µM)
IC50 Non-small cell lung cancer tissue (A549) [2]: 1.81 µg/mL (≈ 1.39 µM)
Percentage of release efficiency (%) Ovarian cancer tissue (A2780) [3]: 66.7%
IC50 Colorectal cancer tissue (colo320) [4]: 2.48 µg/mL (≈ 1.91 µM)
Percentage of release efficiency (%) Colorectal cancer tissue (colo320) [5]: 76.4%
Mouse weight (%) on Day 14 [14]: +4.8%
Mouse weight (%) [6, 15]: +12%
Mouse weight (%) [6, 16]: +19%
Percentage of release efficiency (%) Non-small cell lung cancer tissue (A549) [7]: 74.6%
Percentage of release efficiency (%) Breast cancer tissue (SKBR3) [8]: 72.3%
Mouse weight (%) [9, 19]: +29%
Mouse weight (%) [9, 17]: +9%
Mouse weight (%) on Day 14 ([10]; Day 14): −3.3%
MTD at 14 d [11]: 150 mg/kg
Percentage of release efficiency (%) Heart tissue [12]: 2.2%
Percentage of release efficiency (%) Sarcoma tissue (SJSA1) [13]: 71.7%
